Patent publication US20160089413

Tested on: all-D-retro-inverso JNK-inhibitor (poly-)peptide of SEQ ID NO: 11

c-Jun NH2-terminal kinases (JNK)
c-Jun phosphorylation in RPE/choroid, densitometry of phospho c-Jun relative to tubulin, 24 h after IV injection (20 µg/kg): 0.28±0.01 vs 0.77±0.26 in IV of vehicle
c-Jun phosphorylation in RPE/choroid, densitometry of phospho c-Jun relative to tubulin, 24 h after IVT injection (0.2 µg/injection): 0.35±0.08 vs 0.79±0.25 in IVT of vehicle
c-Jun phosphorylation in RPE/choroid, densitometry of phospho c-Jun relative to tubulin, fold decrease against vehicle: An approximately 3-fold decrease in c-Jun phosphorylation
